We go through 53 proteins from the supplement of paper PMC10567573.

The data set is described as follows: protein stability index of a GFP-peptide fusion (GPS, HEK-293T) (PSI 1-6); higher = more stable.
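Note: lentivirally expressed fusions sorted by FACS into six bins by GFP to DsRed ratio, PSI derived from sequencing read proportions per bin multiplied by bin number.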

B1: UFD1L WT (peptide)
chain: EAGGRFVAFSGEGQSLRKKGRKP
In the case of B1, the protein stability index (parent: IOH4744_50, c terminus: native) stood at 1.91.

B2: FEM1A WT (peptide)
chain: PCCSSSPEEPLNGESYESCCPTSR
For the protein B2, for the setting “parent: IOH5115_46, c terminus: a fixed tail appended”, the protein stability index amounted to 3.71.

B3: TMEM106C WT (peptide)
chain: YVTTNVSLIPPRSEQLVNFTGKAE
On to B3, for which the protein stability index (parent: IOH3247_29, c terminus: a fixed tail appended) came to 1.77.

B4: CDKN1A WT (peptide)
chain: GRKRRQTSMTDFYHSKRRLIFSKR
B4: the protein stability index (parent: IOH5068_24, c terminus: a fixed tail appended) was determined as 3.14.

B5: MLH1 WT (peptide)
chain: YNIATRRKALKNPSEEYGKILEVV
B5: the protein stability index (parent: IOH3190_27, c terminus: a fixed tail appended) is 2.51.

B6: CDKN1A WT (peptide)
chain: RRQTSMTDFYHSKRRLIFSKRKP
Consider B6, for which the protein stability index (parent: IOH5068_25, c terminus: native) amounted to 2.54.

B7: TSN WT (peptide)
chain: AFVVYLETETLVTREAVTEILGIE
Consider B7, for which the protein stability index (parent: IOH3571_18, c terminus: a fixed tail appended) came out at 2.25.

B8: VTI1B WT (peptide)
chain: NKLLLSIIILLELAILGGLVYYKF
For the protein B8, the protein stability index (parent: IOH5143_35, c terminus: a fixed tail appended) worked out at 2.46.

B9: PI4K2A WT (peptide)
chain: FVKDPQGRIIAVFKPKNEEPYGHL
B9: the protein stability index (parent: IOH5080_24, c terminus: a fixed tail appended) was found to be 1.76.

B10: TMEM106C WT (peptide)
chain: TVPEILVHNIVIFMRTSVKISYIG
For B10, for the setting “parent: IOH3247_35, c terminus: a fixed tail appended”, the protein stability index came out at 3.44.

B11: MNAT1 WT (peptide)
chain: SLREYNDFLEEVEEIVFNLTNNVD
B11: the protein stability index (parent: IOH3100_16, c terminus: a fixed tail appended) was 2.

B12: ZNF207 WT (peptide)
chain: FPSAGQAQAAVQGPVGTDFKPLNS
For B12, where the note is “parent: IOH3584_46, c terminus: a fixed tail appended”, the protein stability index amounted to 3.51.

B13: TMEM106C WT (peptide)
chain: FTGRDSITCLTCQGTGYIPTEQVN
As for B13, under “parent: IOH3247_8, c terminus: a fixed tail appended”, the protein stability index amounted to 1.83.

B14: SEC22B WT (peptide)
chain: FPKKLAFAYLEDLHSEFDEQHGKK
For B14, the protein stability index (parent: IOH3957_14, c terminus: a fixed tail appended) came out at 2.61.

B15: PDLIM7 WT (peptide)
chain: AAGGVPGGGSNNGKTPVCHQCHKV
With B15, under “parent: IOH4706_45, c terminus: a fixed tail appended”, the protein stability index is 2.61.

B16: VTI1B WT (peptide)
chain: ANETLAEMEEELRYAPLSFRNPMM
As for B16, the protein stability index (parent: IOH5143_10, c terminus: a fixed tail appended) worked out at 1.94.

B17: ZNF207 WT (peptide)
chain: FQPQPVQPQQGYIPPMAQPGLPPV
For the protein B17, the protein stability index (parent: IOH3584_22, c terminus: a fixed tail appended) was 3.18.

B18: EMD WT (peptide)
chain: YQSKGYNDDYYEESYFTTRTYGEP
B18: the protein stability index (parent: IOH4676_15, c terminus: a fixed tail appended) worked out at 2.23.

B19: RAB40B WT (peptide)
chain: YSLTTSSTHKRSSLRKVKLVRPPQ
In the case of B19, the protein stability index (parent: IOH1937_41, c terminus: a fixed tail appended) worked out at 2.95.

B20: CASP6 WT (peptide)
chain: TCADRDNLTRRFSDLGFEVKCFND
As to B20, the protein stability index (parent: IOH3453_12, c terminus: a fixed tail appended) is 3.21.

B21: FLOT1 WT (peptide)
chain: QMAKKAEAFQLYQEAAQLDMLLEK
With B21, the protein stability index (parent: IOH4826_57, c terminus: a fixed tail appended) came to 1.75.

B22: FAM50A WT (peptide)
chain: KALEILRKDFSELRSAGVEQLMYI
Turning to B22, the protein stability index (parent: IOH4655_39, c terminus: a fixed tail appended) came to 2.56.

B23: CLK3 WT (peptide)
chain: FGEDYYGPSRSRHRRRSRERGPYR
As for B23, the protein stability index (parent: IOH4008_14, c terminus: a fixed tail appended) turned out to be 2.64.

B24: TPD52L2 WT (peptide)
chain: EAEEEELRAELTKVEEEIVTLRQV
In the case of B24, the protein stability index (parent: IOH3163_8, c terminus: a fixed tail appended) came out at 4.06.

B25: NCK2 WT (peptide)
chain: YVERKNSLKKGSLVKNLKDTLGLG
B25: the protein stability index (parent: IOH4659_10, c terminus: a fixed tail appended) came to 2.21.

B26: TSN WT (peptide)
chain: FLAAEQDIREEIRKVVQSLEQTAR
On to B26, for which the protein stability index (parent: IOH3571_3, c terminus: a fixed tail appended) turned out to be 1.8.

B27: ZNF24 WT (peptide)
chain: YGETCFPKGRFERKRNPSRKKQHI
With B27, where the note is “parent: IOH4871_39, c terminus: a fixed tail appended”, the protein stability index was determined as 2.65.

B28: PHTF1 WT (peptide)
chain: RVKLISNKGTETDNDPSCVHPIIK
For B28, where the note is “parent: IOH4271_36, c terminus: a fixed tail appended”, the protein stability index turned out to be 4.06.

B29: ZNF207 WT (peptide)
chain: CHICHKKLYTGPGLAIHCMQVHKE
As for B29, the protein stability index (parent: IOH3584_7, c terminus: a fixed tail appended) stood at 3.29.

B30: PHTF1 WT (peptide)
chain: SRHLNSQVKKTTTRWCHIVRDSDS
B30: for the setting “parent: IOH4271_53, c terminus: a fixed tail appended”, the protein stability index was 2.05.

B31: CCND1 WT (peptide)
chain: IRRAYPDANLLNDRVLRAMLKAEE
B31: the protein stability index (parent: IOH1962_3, c terminus: a fixed tail appended) was found to be 2.62.

B32: MNAT1 WT (peptide)
chain: LEEALYEYQPLQIETYGPHVPELE
In the case of B32, the protein stability index (parent: IOH3100_41, c terminus: a fixed tail appended) is 2.7.

B33: FAM50A WT (peptide)
chain: KKREKQREQMEQMKQRIAEENIMK
In the case of B33, the protein stability index (parent: IOH4655_4, c terminus: a fixed tail appended) was 4.67.

B34: ZNF24 WT (peptide)
chain: THTKEQILELVVLEQFVAILPKEL
Turning to B34, where the note is “parent: IOH4871_15, c terminus: a fixed tail appended”, the protein stability index stood at 2.8.

B35: NCK2 WT (peptide)
chain: YTGPSSSGRFAGREWYYGNVTRHQ
As to B35, the protein stability index (parent: IOH4659_46, c terminus: a fixed tail appended) came to 1.78.

B36: ELF3 WT (peptide)
chain: RLVYKFGKNSSGWKEEEVLQSRN
Turning to B36, the protein stability index (parent: IOH4879_62, c terminus: native) amounted to 2.04.

B37: KRT18 WT (peptide)
chain: KSQDLAKIMADIRAQYDELARKNR
Turning to B37, the protein stability index (parent: IOH2946_41, c terminus: a fixed tail appended) is 2.6.

B38: TSN WT (peptide)
chain: FVELQGFLAAEQDIREEIRKVVQS
As to B38, the protein stability index (parent: IOH3571_2, c terminus: a fixed tail appended) was 2.08.

B39: ZNF207 WT (peptide)
chain: YQGGPPRPPMGMRPPVMSQGGRY
In the case of B39, for the setting “parent: IOH3584_75, c terminus: native”, the protein stability index was determined as 1.94.

B40: KRT18 WT (peptide)
chain: PQVRDWSHYFKIIEDLRAQIFANT
B40: under “parent: IOH2946_21, c terminus: a fixed tail appended”, the protein stability index was found to be 2.07.

B41: ELF3 WT (peptide)
chain: LSKEYWDCLEGKKSKHAPRGTHLW
Take B41: where the note is “parent: IOH4879_43, c terminus: a fixed tail appended”, the protein stability index stood at 2.74.

B42: FEM1A WT (peptide)
chain: NIVEYLIQEQPGQEQVAGGEAQPG
In the case of B42, the protein stability index (parent: IOH5115_39, c terminus: a fixed tail appended) amounted to 4.27.

B43: CIB1 WT (peptide)
chain: DLSRLVNCLTGEGEDTRLSASEMK
On to B43, for which the protein stability index (parent: IOH3143_22, c terminus: a fixed tail appended) amounted to 3.05.

B44: FAM50A WT (peptide)
chain: HIFPASRWEPYDPEKKWDKYTIR
Consider B44, for which the protein stability index (parent: IOH4655_56, c terminus: native) is 2.29.

B45: FAM164A WT (peptide)
chain: YDPDYIQCPYCQRRFNENAADRHI
On to B45, for which the protein stability index (parent: IOH3371_20, c terminus: a fixed tail appended) turned out to be 4.12.

B46: MCOLN1 WT (peptide)
chain: EEEDLRRRLKYFFMSPCDKFRAKG
Turning to B46, the protein stability index (parent: IOH4733_7, c terminus: a fixed tail appended) was 2.28.

B47: CDC34 WT (peptide)
chain: GGYFKARLKFPIDYPYSPPAFRFL
Regarding B47, the protein stability index (parent: IOH1870_10, c terminus: a fixed tail appended) turned out to be 2.41.

B48: KRT18 WT (peptide)
chain: RAQYDELARKNREELDKYWSQQIE
With B48, the protein stability index (parent: IOH2946_43, c terminus: a fixed tail appended) worked out at 3.04.

B49: SEC22B WT (peptide)
chain: AKQLFRKLNEQSPTRCTLEAGAMT
Take B49: the protein stability index (parent: IOH3957_7, c terminus: a fixed tail appended) worked out at 2.07.

B50: KRT18 WT (peptide)
chain: RVRSLETENRRLESKIREHLEKKG
As for B50, the protein stability index (parent: IOH2946_17, c terminus: a fixed tail appended) turned out to be 4.39.

B51: MNAT1 WT (peptide)
chain: LAPIHKLEEALYEYQPLQIETYGP
With B51, the protein stability index (parent: IOH3100_40, c terminus: a fixed tail appended) was determined as 1.96.

B52: CCND1 WT (peptide)
chain: PEAEENKQIIRKHAQTFVALCATD
Take B52: under “parent: IOH1962_29, c terminus: a fixed tail appended”, the protein stability index is 2.89.

B53: TMEM106C WT (peptide)
chain: SEQLVNFTGKAEMGGPFSYVYFFC
Consider B53, for which the protein stability index (parent: IOH3247_31, c terminus: a fixed tail appended) stood at 2.53.
